# According to paper PMC11472053, “Structural basis of DNA recognition by BEN domain proteins reveals a role for oligomerization in unmethylated DNA selection by BANP” (Nucleic Acids Research, 2024):
# T1: BANP BEN S313A (human, UniProt Q8N9N5 205-325, S313A)
# T1 sequence: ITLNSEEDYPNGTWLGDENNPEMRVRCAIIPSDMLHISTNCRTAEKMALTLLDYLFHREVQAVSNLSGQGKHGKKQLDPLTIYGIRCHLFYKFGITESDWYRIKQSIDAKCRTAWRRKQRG
# T2: BANP BEN S310A (human, UniProt Q8N9N5 205-325, S310A)
# T2 sequence: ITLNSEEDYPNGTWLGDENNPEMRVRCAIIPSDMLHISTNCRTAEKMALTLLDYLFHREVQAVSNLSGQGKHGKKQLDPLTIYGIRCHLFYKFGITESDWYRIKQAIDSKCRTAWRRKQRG
# T3: BANP BEN K278A (human, UniProt Q8N9N5 205-325, K278A)
# T3 sequence: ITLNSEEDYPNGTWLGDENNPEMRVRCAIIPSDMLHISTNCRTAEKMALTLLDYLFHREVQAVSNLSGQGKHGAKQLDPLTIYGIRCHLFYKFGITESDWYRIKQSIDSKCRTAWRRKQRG
# T4: BANP BEN-DBD (human, UniProt Q8N9N5 205-519)
# T4 sequence: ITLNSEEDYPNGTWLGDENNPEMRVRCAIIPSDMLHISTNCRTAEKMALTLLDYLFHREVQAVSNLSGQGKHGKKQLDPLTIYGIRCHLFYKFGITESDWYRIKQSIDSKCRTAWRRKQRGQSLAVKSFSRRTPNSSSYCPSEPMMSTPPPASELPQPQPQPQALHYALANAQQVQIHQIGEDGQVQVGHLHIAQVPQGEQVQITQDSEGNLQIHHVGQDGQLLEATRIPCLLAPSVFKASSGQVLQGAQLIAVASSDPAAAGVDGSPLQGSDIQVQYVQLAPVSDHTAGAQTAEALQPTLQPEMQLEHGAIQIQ
# T5: BANP ΔCC (human, UniProt Q8N9N5 90-519)
# T5 sequence: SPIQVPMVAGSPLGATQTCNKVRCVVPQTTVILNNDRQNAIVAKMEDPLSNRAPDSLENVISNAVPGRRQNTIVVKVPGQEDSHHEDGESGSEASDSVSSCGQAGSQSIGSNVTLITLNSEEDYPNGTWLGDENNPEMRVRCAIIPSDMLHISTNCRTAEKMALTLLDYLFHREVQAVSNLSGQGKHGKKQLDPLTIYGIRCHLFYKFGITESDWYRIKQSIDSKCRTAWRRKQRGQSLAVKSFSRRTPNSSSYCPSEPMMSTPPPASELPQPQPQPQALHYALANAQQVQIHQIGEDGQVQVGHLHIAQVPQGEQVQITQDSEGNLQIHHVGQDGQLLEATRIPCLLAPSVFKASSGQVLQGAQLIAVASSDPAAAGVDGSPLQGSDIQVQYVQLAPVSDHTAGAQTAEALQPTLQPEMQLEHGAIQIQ
# T6: BANP CC-BEN (ΔDBD) (human, UniProt Q8N9N5 1-360)
# T6 sequence: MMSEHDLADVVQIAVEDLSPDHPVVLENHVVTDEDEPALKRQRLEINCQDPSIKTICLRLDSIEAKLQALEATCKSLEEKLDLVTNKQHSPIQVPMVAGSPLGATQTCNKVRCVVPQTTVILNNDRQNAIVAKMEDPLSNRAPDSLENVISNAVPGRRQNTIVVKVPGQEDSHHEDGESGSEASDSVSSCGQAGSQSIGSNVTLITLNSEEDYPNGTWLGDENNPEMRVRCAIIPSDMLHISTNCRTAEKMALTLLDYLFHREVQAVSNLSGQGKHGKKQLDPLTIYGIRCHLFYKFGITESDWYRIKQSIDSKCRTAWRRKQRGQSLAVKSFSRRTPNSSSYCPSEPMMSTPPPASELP
# T7: GST-BANP BEN (human, UniProt Q8N9N5 205-325)
# T7 sequence: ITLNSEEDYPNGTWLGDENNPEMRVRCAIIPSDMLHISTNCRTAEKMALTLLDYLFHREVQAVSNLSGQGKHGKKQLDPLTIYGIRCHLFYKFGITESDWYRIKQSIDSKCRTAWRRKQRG
# How the values were obtained:
# Assay in all cases: ITC; ITC: 20 mM Tris pH 7.5, 200 mM NaCl, 2 mM beta-mercaptoethanol, 20 C; EMSA: 20 mM Tris pH 7.0, 200 mM NaCl, 2 mM DTT, 4 C, 1.2% agarose in TAE
# BANP BEN S313A = biological target: T1, BANP BEN S313A; settings: protein: recombinant; tags: His-SUMO or His-MBP, cleaved; chain copies: 2; blunt, self-complementary
# BANP BEN S310A = biological target: T2, BANP BEN S310A; settings: protein: recombinant; tags: His-SUMO or His-MBP, cleaved; chain copies: 2; blunt, self-complementary
# BANP BEN K278A = biological target: T3, BANP BEN K278A; settings: protein: recombinant; tags: His-SUMO or His-MBP, cleaved; chain copies: 2; blunt, self-complementary
# BANP BEN-DBD = biological target: T4, BANP BEN-DBD; settings: protein: recombinant; tags: His-SUMO or His-MBP, cleaved; blunt, self-complementary
# BANP ΔCC = biological target: T5, BANP ΔCC; settings: protein: recombinant; tags: His-SUMO or His-MBP, cleaved; blunt, self-complementary
# BANP CC-BEN (ΔDBD) = biological target: T6, BANP CC-BEN (ΔDBD); settings: protein: recombinant; tags: His-SUMO or His-MBP, cleaved; blunt, self-complementary
# GST-BANP BEN = biological target: T7, GST-BANP BEN; settings: protein: recombinant; tags: N-terminal GST fusion; chain copies: 2; blunt, self-complementary
binder,measurement,setting,value
12-CGCG (dsDNA) DNA 1: ATCTCGCGAGAT DNA 2: ATCTCGCGAGAT,Kd,BANP BEN S313A,7.9 ± 1.1 µM
same,Kd,BANP BEN S310A,12.8 ± 0.9 µM
same,Kd,BANP BEN K278A,35.6 ± 4.1 µM
same,Kd,BANP BEN-DBD,3.1 ± 0.3 µM
same,Kd,BANP ΔCC,3.4 ± 0.5 µM
same,Kd,BANP CC-BEN (ΔDBD),2.9 ± 0.7 µM
same,Kd,GST-BANP BEN,2.3 ± 0.4 µM
